Test results reported in article PMC10397247.
One block for each binder: values may come before it.

Legend:
4H1985-bH = target: T1, 4H1985-bH; assay: two-hybrid library CCNG1;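 note: natural log of median RNA to DNA barcode read ratio; higher means stronger binding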
T1 chain: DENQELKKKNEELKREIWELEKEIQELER

4H3414-bH = target: T2, 4H3414-bH; assay: two-hybrid library CCNG1;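 note: natural log of median RNA to DNA barcode read ratio; higher means stronger binding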
T2 chain: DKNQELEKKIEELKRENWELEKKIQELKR

4H850-bH = target: T3, 4H850-bH; assay: two-hybrid library CCNG1;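 note: natural log of median RNA to DNA barcode read ratio; higher means stronger binding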
T3 chain: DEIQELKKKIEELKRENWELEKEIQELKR

4H3497-bH = target: T4, 4H3497-bH; assay: two-hybrid library CCNG1;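 note: natural log of median RNA to DNA barcode read ratio; higher means stronger binding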
T4 chain: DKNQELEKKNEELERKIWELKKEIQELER

4H3277-bH = target: T5, 4H3277-bH; assay: two-hybrid library CCNG1;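 note: natural log of median RNA to DNA barcode read ratio; higher means stronger binding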
T5 chain: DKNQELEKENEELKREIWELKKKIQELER

4H906-bH = target: T6, 4H906-bH; assay: two-hybrid library CCNG1;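 note: natural log of median RNA to DNA barcode read ratio; higher means stronger binding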
T6 chain: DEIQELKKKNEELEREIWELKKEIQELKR

4H3175-bH = target: T7, 4H3175-bH; assay: two-hybrid library CCNG1
T7 chain: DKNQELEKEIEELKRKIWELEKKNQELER

4H626-bH = target: T8, 4H626-bH; assay: two-hybrid library CCNG1
T8 chain: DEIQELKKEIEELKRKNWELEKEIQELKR

4H3613-bH = target: T9, 4H3613-bH; assay: two-hybrid library CCNG1
T9 chain: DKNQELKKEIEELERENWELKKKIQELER

4H3628-bH = target: T10, 4H3628-bH; assay: two-hybrid library CCNG1
T10 chain: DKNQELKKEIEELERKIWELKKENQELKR

4H3462-bH = target: T11, 4H3462-bH; assay: two-hybrid library CCNG1
T11 chain: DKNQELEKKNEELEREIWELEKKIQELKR

4H570-bH = target: T12, 4H570-bH; assay: two-hybrid library CCNG1
T12 chain: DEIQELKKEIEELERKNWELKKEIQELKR

4H3298-bH = target: T13, 4H3298-bH; assay: two-hybrid library CCNG1
T13 chain: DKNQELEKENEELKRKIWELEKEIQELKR

4H3162-bH = target: T14, 4H3162-bH; assay: two-hybrid library CCNG1
T14 chain: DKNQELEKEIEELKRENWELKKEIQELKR

4H3858-bH = target: T15, 4H3858-bH; assay: two-hybrid library CCNG1
T15 chain: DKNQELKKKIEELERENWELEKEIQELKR

4H3974-bH = target: T16, 4H3974-bH; assay: two-hybrid library CCNG1
T16 chain: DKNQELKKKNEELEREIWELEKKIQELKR

4H3926-bH = target: T17, 4H3926-bH; assay: two-hybrid library CCNG1
T17 chain: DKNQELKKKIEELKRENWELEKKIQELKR

4H1899-bH = target: T18, 4H1899-bH; assay: two-hybrid library CCNG1
T18 chain: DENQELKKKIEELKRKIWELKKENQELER

4H591-bH = target: T19, 4H591-bH; assay: two-hybrid library CCNG1
T19 chain: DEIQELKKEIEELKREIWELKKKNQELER

4H3628-bN = target: T20, 4H3628-bN; assay: two-hybrid library CCNG1
T20 chain: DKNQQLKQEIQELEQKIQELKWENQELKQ

4H3817-bH = target: T21, 4H3817-bH; assay: two-hybrid library CCNG1
T21 chain: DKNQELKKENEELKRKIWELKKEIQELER

P9-AA = target: T22, P9-AA; assay: two-hybrid library CCmax; settings: mean of both orientations
T22 chain: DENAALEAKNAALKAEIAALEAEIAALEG

P12-AA = target: T23, P12-AA; assay: two-hybrid library CCmax; settings: mean of both orientations
T23 chain: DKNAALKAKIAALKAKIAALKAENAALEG

P11-AA = target: T24, P11-AA; assay: two-hybrid library CCmax; settings: mean of both orientations
T24 chain: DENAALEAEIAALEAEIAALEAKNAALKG

P10-AA = target: T25, P10-AA; assay: two-hybrid library CCmax; settings: mean of both orientations
T25 chain: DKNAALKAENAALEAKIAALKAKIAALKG

AP2-AA = target: T26, AP2-AA; assay: two-hybrid library CCmax
T26 chain: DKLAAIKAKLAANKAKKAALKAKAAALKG

P2-AA = target: T27, P2-AA; assay: two-hybrid library CCmax; settings: mean of both orientations
T27 chain: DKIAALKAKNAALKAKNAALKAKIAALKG

AP8-AA = target: T28, AP8-AA; assay: two-hybrid library CCmax; settings: mean of both orientations
T28 chain: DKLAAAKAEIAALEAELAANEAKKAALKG

GCN2_T = assay: two-hybrid library CCmax
AP3-AA = target: T29, AP3-AA; assay: two-hybrid library CCmax; settings: mean of both orientations
T29 chain: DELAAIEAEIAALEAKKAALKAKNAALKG

AP4-AA = target: T30, AP4-AA; assay: two-hybrid library CCmax; settings: mean of both orientations
T30 chain: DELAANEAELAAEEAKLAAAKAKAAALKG

P1-AA = target: T31, P1-AA; assay: two-hybrid library CCmax; settings: mean of both orientations
T31 chain: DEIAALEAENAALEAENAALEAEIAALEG

P7-AA = target: T32, P7-AA; assay: two-hybrid library CCmax; settings: mean of both orientations
T32 chain: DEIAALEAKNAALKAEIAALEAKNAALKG

AP6-AA = target: T33, AP6-AA; assay: two-hybrid library CCmax; settings: mean of both orientations
T33 chain: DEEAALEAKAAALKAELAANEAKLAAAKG

AP7-AA = target: T34, AP7-AA; assay: two-hybrid library CCmax
T34 chain: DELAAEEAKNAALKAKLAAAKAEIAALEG

P3-AA = target: T35, P3-AA; assay: two-hybrid library CCmax; settings: mean of both orientations
T35 chain: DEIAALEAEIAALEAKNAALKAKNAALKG

P4-AA = target: T36, P4-AA; assay: two-hybrid library CCmax; settings: mean of both orientations
T36 chain: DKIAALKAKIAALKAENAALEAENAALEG

AP5-AA = target: T37, AP5-AA; assay: two-hybrid library CCmax; settings: mean of both orientations
T37 chain: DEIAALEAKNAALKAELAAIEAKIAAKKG

P8-AA = target: T38, P8-AA; assay: two-hybrid library CCmax; settings: mean of both orientations
T38 chain: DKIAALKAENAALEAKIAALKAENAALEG

interaction score (4H1985-bH): 1.05 | interaction score (4H3414-bH): -0.169 | interaction score (4H850-bH): -0.44 | interaction score (4H3497-bH): 0.766 | interaction score (4H3277-bH): -0.392 | interaction score (4H906-bH): -0.666 | interaction score (4H3175-bH): 0.0491 | interaction score (4H626-bH): -1.98 | interaction score (4H3613-bH): -0.355 | interaction score (4H3628-bH): 1.19 | interaction score (4H3462-bH): 0.0285 | interaction score (4H570-bH): -1.69 | interaction score (4H3298-bH): -0.203 | interaction score (4H3162-bH): -0.289 | interaction score (4H3858-bH): -0.0187 | interaction score (4H3974-bH): 0.298 | interaction score (4H3926-bH): -0.236 | interaction score (4H1899-bH): 0.337 | interaction score (4H591-bH): -0.968 | interaction score (4H3628-bN): 0.735 | interaction score (4H3817-bH): 0.356
Binder: DENQELKKKIEELKRKIWELKKENQELER [4H1899-bH]

interaction score (P9-AA): -1.65 | interaction score (P12-AA): -1.59 | interaction score (P11-AA): -0.526 | interaction score (P10-AA): -1.76 | interaction score (AP2-AA): -2.11 | interaction score (P2-AA): -1.94 | interaction score (AP8-AA): -1.71 | interaction score (GCN2_T): -1.81 | interaction score (AP3-AA): -2.09 | interaction score (AP4-AA): -1.62 | interaction score (P1-AA): 0.511 | interaction score (P7-AA): -1.75 | interaction score (AP6-AA): -1.74 | interaction score (AP7-AA): -1.6 | interaction score (P3-AA): -1.95 | interaction score (P4-AA): -1.83 | interaction score (AP5-AA): -1.24 | interaction score (P8-AA): -1.86
Binder: DKLAAIKAKLAANKAKKAALKAKAAALKG [AP2-AA]
